T1: Human Macrophage Receptor with Collagenous Structure (MARCO), full length, on cells (human, UniProt Q9UEW3 1-520)
T1 construct: the cell type is named under assay; also called huMARCO; HuMARCO
T1 sequence: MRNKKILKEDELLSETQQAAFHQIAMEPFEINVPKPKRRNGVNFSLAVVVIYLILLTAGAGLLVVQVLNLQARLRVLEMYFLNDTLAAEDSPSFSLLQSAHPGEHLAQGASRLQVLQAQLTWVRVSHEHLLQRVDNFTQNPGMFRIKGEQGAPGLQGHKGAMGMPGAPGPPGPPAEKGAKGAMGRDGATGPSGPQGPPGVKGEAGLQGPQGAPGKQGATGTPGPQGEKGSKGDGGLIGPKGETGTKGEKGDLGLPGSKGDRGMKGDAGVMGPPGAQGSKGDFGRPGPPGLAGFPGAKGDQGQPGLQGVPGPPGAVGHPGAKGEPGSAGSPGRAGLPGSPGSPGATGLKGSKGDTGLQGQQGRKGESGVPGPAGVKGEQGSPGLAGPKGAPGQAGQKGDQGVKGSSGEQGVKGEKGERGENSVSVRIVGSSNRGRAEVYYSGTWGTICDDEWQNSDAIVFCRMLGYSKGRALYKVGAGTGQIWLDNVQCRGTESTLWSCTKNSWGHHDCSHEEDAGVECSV

T2: N-terminally polyhistidine tagged human MARCO ECD (147-520), recombinant (human, UniProt Q9UEW3 147-520)
T2 construct: also called PI-RG-3000; recombinant human MARCO; not shown: N-terminal polyhistidine tag
T2 sequence: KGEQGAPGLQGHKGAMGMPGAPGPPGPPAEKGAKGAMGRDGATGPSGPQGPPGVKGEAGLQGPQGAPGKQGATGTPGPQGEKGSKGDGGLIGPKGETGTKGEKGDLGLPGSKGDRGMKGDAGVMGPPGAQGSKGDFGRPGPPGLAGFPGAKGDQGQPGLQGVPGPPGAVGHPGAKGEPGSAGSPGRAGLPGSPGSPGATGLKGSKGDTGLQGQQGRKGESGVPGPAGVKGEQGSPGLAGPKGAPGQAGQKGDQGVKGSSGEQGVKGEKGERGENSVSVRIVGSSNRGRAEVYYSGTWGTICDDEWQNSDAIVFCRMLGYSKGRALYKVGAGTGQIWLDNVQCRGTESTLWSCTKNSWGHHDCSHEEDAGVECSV

B1: PI-3010-AB (antibody, human IgG1, kappa)
heavy: not shown
light: DIQMTQSPASLSTSLGETVSIECLASEGISNDLAWYQQKSGKSPQLLIYAASRLQDGVPSRFSGSGSGTRYSLKISGMQPEDEADYFCQQSYKYPLTFGSGTKLEIKRTVAAPSVFIFPPSDEQLKSGTASVVCLLNNFYPREAKVQWKVDNALQSGNSQESVTEQDSKDSTYSLSSTLTLSKADYEKHKVYACEVTHQGLSSPVTKSFNRGEC
B2: PI-3015-AB (antibody, human IgG1, kappa)
heavy: not shown
light: DIQMTQSPSSLSASVGDRVTITCRASEGISNDLAWYQQKPGKAPKLLIYAASRLQSGVPSRFSGSGSGTDYTLTISSMQPEDFATYYCQQSYKYPLTFGQGTKLEIKRTVAAPSVFIFPPSDEQLKSGTASVVCLLNNFYPREAKVQWKVDNALQSGNSQESVTEQDSKDSTYSLSSTLTLSKADYEKHKVYACEVTHQGLSSPVTKSFNRGEC

Assays:
[1] = target: T1, Human Macrophage Receptor with …; assay: flow cytometry, cells overexpressing human MARCO
Procedure: Supernatants were removed and cell pellets were resuspended in Ca²⁺+ and Mg²⁺+ Dulbecco's phosphate-buffered saline (D-PBS) at 1×10⁶ cells/ml. 100,000 cells/well were plated onto U-bottom 96-well plates for staining and all centrifugation steps were performed at 1500 rpm at 4° C. for 5 min and samples were kept protected from light throughout the protocol. Cells were pelleted and resuspended in 100 μl of Zombie NIR viability dye (BioLegend) prepared by diluting Zombie NIR dimethyl sulfoxide (DMSO) stock 1000-fold in D-PBS. Cells were stained by incubation for 10 min at room temperature (RT) in the dark, followed by quenching the staining reaction with the addition of 100 μl of Staining Medium (D-PBS containing 2% FBS and 2 mM ethylenediaminetetraacetic acid (EDTA). Cells were pelleted and resuspended in 100 μl of the different antibodies and hybridomas supernatants needed for screening and corresponding isotype controls in freshly prepared staining medium, such as PI-M014 and mIgG2b isotype. All mAbs were tested at the final top concentration of 100 nM (15 μg/ml) followed by an 8-point three-fold serial dilution, including 0 mg/ml control. Staining was carried out for 1 hour (hr) on ice, followed by 2 washes in Staining Medium. Cells were then pelleted and resuspended in 100 μl of allophycocyanin (APC)-conjugated goat anti-mouse IgG (Fc-specific) secondary antibody, prepared by 500-fold dilution of the antibody stocks in Staining Medium, and incubated for 30 min on ice. […] Flow cytometry data were analyzed using FlowJo software (version 10.6.1) and data were processed and further analyzed in Microsoft Excel and GraphPad Prism software (version 8). Half-maximal effective concentrations (EC₅₀) were calculated based on geometric mean fluorescence intensities (gMFI). In case when the plates were not able to be analyzed on the cytometer, cells were pelleted after the washes and fixed in 100 μl of 2% paraformaldehyde (PFA), prepared by diluting the 16% (w/v) stock (Thermo Fisher) in DPBS, for 15 min at RT. […]

[2] = target: T2, N-terminally polyhistidine tagged human …; assay: Biacore (SPR), binding affinity to human MARCO
How it was run: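 Antibodies were captured by anti-mouse Fc mAb amine-coupled to a CM4 chip (4500 RU target). Running buffer was 10 mM HEPES pH 7.4, 150 mM NaCl, 3 mM EDTA, 0.05% surfactant P20. Injections were at 0.625–10 nM with 90 s association and 600 s dissociation, and constants were fitted in BIAevaluation 3.1.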

Row | Binder | EC50 [1] | Kd [2]
1 | B1 | 0.68 nM | 
2 | B2 |  | 0.51 nM

Reference: patent publication US20220153832A1 (PIONYR IMMUNOTHERAPEUTICS, published 2022)
